Reference: the supplement of paper PMC10724198

Experiments:
[1] = test system: Saccharomyces cerevisiae; test: protein stability index of tFT-peptide fusion in deletion strain of DAS1 (PSI (0-1 scale)); higher = more stable (slower turnover)
Method: (§1)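 MPS profiling in S. cerevisiae of two library types built from selected 12-aa C-degron peptides (IN1, IN2, LN1, LN3, VN2, R1-R5, W1-W3, Atg1 and Rpa12 C-termini): saturation mutagenesis libraries and C-terminal +1 capping libraries (13 aa). Each peptide is fused to the C-terminus of a sfGFP-mCherry timer, after a GGGS linker. Cells are FACS-sorted into 8 mCherry/sfGFP bins and sequenced. PSI runs from 0 (unstable) to 1 (stable), measured once in wild type and in the das1Δ or doa10Δ background.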

[2] = test system: Saccharomyces cerevisiae; test: protein stability index of tFT-peptide fusion in wild type (PSI (0-1 scale)); higher = more stable (slower turnover); conditions: genetic background: wild type
Method: as §1
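For protein stability index of tFT-peptide fusion in deletion strain of DAS1 in this document: PSI is a weighted mean of each variant's read distribution over the sorted stability bins, computed only for variants having over 10 reads in total.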
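For protein stability index of tFT-peptide fusion in wild type in this document: PSI derived as read-weighted mean over the 8 sorting bins, only variants exceeding 10 total reads kept, mCherry placed adjacent to the peptide and sfGFP distal.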

Q: Which protein stability index [1] does the source give for KKHNKGQKQKIN here?
A: Its protein stability index is 0.645.

Q: And the protein stability index [2]?
A: The protein stability index was 0.0428.

Q: How did the protein stability index [1] turn out when KKHVKGQKQKIN was run?
A: The protein stability index was 0.606.

Q: What about the protein stability index [2] of the same sequence?
A: Its protein stability index is 0.0752.

Q: With LAILRQKMNHQN as the sequence, how does the protein stability index [1] read?
A: The protein stability index was 0.67.

Q: And the protein stability index [2]?
A: Its protein stability index is 0.137.

Q: Which protein stability index [1] does the source give for LHVYLSCVACIN here?
A: Its protein stability index is 0.109.

Q: And the protein stability index [2]?
A: The protein stability index was 0.0172.

Q: What does the source list for LKIARQKMNHQN?
A: protein stability index [1]: 0.694; protein stability index [2]: 0.277

Q: Which protein stability index [1] does the source give for LKIDRQKMNHQN here?
A: The protein stability index was 0.676.

Q: What about the protein stability index [2] of the same sequence?
A: The protein stability index was 0.241.

Q: Which results are given for LKILNQKMNHQN?
A: protein stability index [1]: 0.688; protein stability index [2]: 0.395

Q: How did the protein stability index [1] turn out when LKILRQKANHQN was run?
A: The protein stability index was 0.688.

Q: What about the protein stability index [2] of the same sequence?
A: Its protein stability index is 0.373.

Q: LKILRQKMNFQN was tested. Which protein stability index [1] did it give?
A: The protein stability index was 0.674.

Q: And the protein stability index [2]?
A: Its protein stability index is 0.225.

Q: What does the source list for LKILRQKMNHCN?
A: protein stability index [1]: 0.669; protein stability index [2]: 0.191

Q: How did the protein stability index [1] turn out when LKILRQKMNHQNV was run?
A: Its protein stability index is 0.662.

Q: And the protein stability index [2]?
A: Its protein stability index is 0.669.

Q: With LKILRQKMNHQY as the sequence, how does the protein stability index [1] read?
A: The protein stability index was 0.684.

Q: What about the protein stability index [2] of the same sequence?
A: The protein stability index was 0.274.

Q: For LKILRQKMNPQN, which protein stability index [1] is on record?
A: Its protein stability index is 0.677.

Q: And the protein stability index [2]?
A: Its protein stability index is 0.689.

Q: For LKILRQKMNQQN, which protein stability index [1] is on record?
A: The protein stability index was 0.676.

Q: And the protein stability index [2]?
A: Its protein stability index is 0.218.

Q: With LKILRQKMNYQN as the sequence, how does the protein stability index [1] read?
A: The protein stability index was 0.657.

Q: What about the protein stability index [2] of the same sequence?
A: Its protein stability index is 0.219.

Q: How did the protein stability index [1] turn out when LKILRQKMVHQN was run?
A: The protein stability index was 0.657.

Q: What about the protein stability index [2] of the same sequence?
A: Its protein stability index is 0.19.

Q: Which results are given for LKILRQNMNHQN?
A: protein stability index [1]: 0.667; protein stability index [2]: 0.255

Q: Which protein stability index [1] does the source give for LKILRTKMNHQN here?
A: Its protein stability index is 0.678.

Q: What about the protein stability index [2] of the same sequence?
A: The protein stability index was 0.178.

Q: How did the protein stability index [1] turn out when LKMLRQKMNHQN was run?
A: The protein stability index was 0.683.

Q: And the protein stability index [2]?
A: The protein stability index was 0.171.

Q: With LMILRQKMNHQN as the sequence, how does the protein stability index [1] read?
A: The protein stability index was 0.676.

Q: And the protein stability index [2]?
A: Its protein stability index is 0.166.

Q: Which protein stability index [1] does the source give for LQVYLSCVACIN here?
A: Its protein stability index is 0.0994.

Q: What about the protein stability index [2] of the same sequence?
A: Its protein stability index is 0.0249.

Q: With LRVYLSCVACIN as the sequence, how does the protein stability index [1] read?
A: The protein stability index was 0.121.

Q: And the protein stability index [2]?
A: Its protein stability index is 0.0194.

Q: For LTSCGYKFRTNN, which protein stability index [1] is on record?
A: Its protein stability index is 0.666.

Q: What about the protein stability index [2] of the same sequence?
A: The protein stability index was 0.197.

Q: With LVCYLSCVACIN as the sequence, how does the protein stability index [1] read?
A: Its protein stability index is 0.0279.

Q: And the protein stability index [2]?
A: The protein stability index was 0.0123.

Q: Which results are given for LVHYLSCVACIN?
A: protein stability index [1]: 0.188; protein stability index [2]: 0.0263

Q: LVTYLSCVACIN was tested. Which protein stability index [1] did it give?
A: Its protein stability index is 0.167.

Q: What about the protein stability index [2] of the same sequence?
A: The protein stability index was 0.0357.

Q: Which results are given for LVVRLSCVACIN?
A: protein stability index [1]: 0.0347; protein stability index [2]: 0.0177

Q: LVVTLSCVACIN was tested. Which protein stability index [1] did it give?
A: The protein stability index was 0.0408.

Q: What about the protein stability index [2] of the same sequence?
A: Its protein stability index is 0.0146.

Q: Which results are given for LVVYLFCVACIN?
A: protein stability index [1]: 0.0277; protein stability index [2]: 0.0137

Q: With LVVYLMCVACIN as the sequence, how does the protein stability index [1] read?
A: The protein stability index was 0.0335.

Q: What about the protein stability index [2] of the same sequence?
A: Its protein stability index is 0.0154.

Q: Which protein stability index [1] does the source give for LVVYLSCDACIN here?
A: The protein stability index was 0.191.

Q: What about the protein stability index [2] of the same sequence?
A: Its protein stability index is 0.144.

Q: LVVYLSCGACIN was tested. Which protein stability index [1] did it give?
A: Its protein stability index is 0.3.

Q: What about the protein stability index [2] of the same sequence?
A: The protein stability index was 0.283.

Q: How did the protein stability index [1] turn out when LVVYLSCVACIA was run?
A: Its protein stability index is 0.0258.

Q: And the protein stability index [2]?
A: Its protein stability index is 0.0168.

Q: With LVVYLSCVACIK as the sequence, how does the protein stability index [1] read?
A: Its protein stability index is 0.0213.

Q: What about the protein stability index [2] of the same sequence?
A: Its protein stability index is 0.0121.

Q: LVVYLSCVACIL was tested. Which protein stability index [1] did it give?
A: The protein stability index was 0.032.

Q: And the protein stability index [2]?
A: The protein stability index was 0.0189.

Q: LVVYLSCVACINC was tested. Which protein stability index [1] did it give?
A: Its protein stability index is 0.0918.

Q: And the protein stability index [2]?
A: Its protein stability index is 0.0649.

Q: How did the protein stability index [1] turn out when LVVYLSCVACINR was run?
A: Its protein stability index is 0.034.

Q: What about the protein stability index [2] of the same sequence?
A: Its protein stability index is 0.0215.

Q: For LVVYLSCVACINW, which protein stability index [1] is on record?
A: Its protein stability index is 0.0403.

Q: And the protein stability index [2]?
A: The protein stability index was 0.0246.

Q: LVVYLSCVACWN was tested. Which protein stability index [1] did it give?
A: The protein stability index was 0.0568.

Q: What about the protein stability index [2] of the same sequence?
A: Its protein stability index is 0.0216.

Q: How did the protein stability index [1] turn out when LVVYLSCVAPIN was run?
A: The protein stability index was 0.449.

Q: And the protein stability index [2]?
A: Its protein stability index is 0.457.

Q: LVVYLSCVGCIN was tested. Which protein stability index [1] did it give?
A: Its protein stability index is 0.293.

Q: What about the protein stability index [2] of the same sequence?
A: Its protein stability index is 0.244.

Q: Which results are given for LVVYLSCVNCIN?
A: protein stability index [1]: 0.419; protein stability index [2]: 0.135

Q: Which results are given for LVVYLSCVRCIN?
A: protein stability index [1]: 0.335; protein stability index [2]: 0.109

Q: Which protein stability index [1] does the source give for LVVYLSCVYCIN here?
A: Its protein stability index is 0.158.

Q: And the protein stability index [2]?
A: The protein stability index was 0.0441.

Q: Which protein stability index [1] does the source give for LVVYLSCWACIN here?
A: The protein stability index was 0.0504.

Q: And the protein stability index [2]?
A: Its protein stability index is 0.02.
